Laboratory results as given in US5336488A, “Method of treating or preventing mastitis in animals with involuting mammary glands by administering recombinant cytokines” (American Cyanamid Company, priority 1992, dated 1994).

Experiments:
milk PMNs [1] = assay: Quantity of milk PMNs after intramammary infusion; type: in vivo, bovine (Holstein dairy cattle)
Procedure: (§1) FIGS. 2(A-I): Quantity and Quality of Milk PMNs from Mammary Glands Infused with r-BolL-1 or r-BoIL-2
(§2) A total of 12 mammary glands from normal lactating Holstein dairy cattle are infused through the teat canal with either 200 μg of r-BoIL-1; 2 mg of r-BoIL-2; or 1 mg of r-BoGM-CSF. Milk samples are collected and the number of viable somatic cells counted on a Coulter® ZM with a C256 Channelyzer. The data is expressed as the somatic cell count per ml of milk sampled at 16, 40, 64 and 88 hours after infusion for r-BoIL-1 (A); r-BoIL-2 (D); or r-BoGM-CSF(G). The total percentage of phagocytosis by milk PMNs (polymorphonuclear cells) is quantitatively measured by flow cytometry by measuring the percentage of cells ingesting 2μ fluorescent beads for r-BoIL-1 (B); r-BoIL-2(E); or r-BoGM-CSF(H). The total population is first gated by forward angle light scatter, FALS and 90° light scatter to only consider viable polymorphonuclear cells. The induction of superoxide after PMA (520.eta.g)stimulation is also monitored using a whole cell cytochrome-c reduction assay, for r-BoIL-1 (C); r-BoIL-2(F); or r-BoGM-CSF(I). PMNs from untreated milk could not be induced to produce superoxide, while peripheral blood PMNs are inducible in a range of 5-15 .eta.M O2 /Minute/10^7 PMNs.

[2] = Specific biological activity of recombinant cytokine protein; conditions: for in vitro specific bioactivities: r-BoIL-1 compared with r-BoIL-2; for biological activity: mass of protein
S. aureus [3] = assay: Prevention of S. aureus mastitis in lactating animals; type: in vivo, S. aureus (in lactating Holstein dairy cattle); conditions: for % CONTROL / % INFECTED: vs Control 1; for protection from subsequent S. aureus challenge: intramammary infusion, Table 1; for most efficacious time of administration for protective effect: relative to S. aureus challenge
Source text: This maximal protection correlates with the peak quantitative biological response for this cytokine. […] This also correlates with the peak quantitative biological response of this cytokine and also marks the qualitative increase in phagocytosis and inducible superoxide, FIG. 2D & 2E.
^1 Single intramammary infusion administered after the PM milking. A
total of 100 mammary glands from 22 different lactating Holstein dairy
^2 All glands are free of bacteria on 5 successive samples after the
AM milking prior to the initial infusion.
^3 The total dose in mass of protein is indicated. The biological
^4 Infusions of cytokines were administerd simultaneously with S.
aureus 0, 24 or 48 hours proir to challenge with 30-200 CFUs of S.
^5 Individual quarters are considered cured if the milk samples remai
free of S. aureus. for 14 days after intramammary challenge with of S.
^6 The % Control = (1 - {% Infected After Therapy divided by Infected
in Control Quarters)} × 100.
*Quarters in Control 1 are challenged with 250 CFUs of S. aureus..
Quarters in Control 2 are challenged with 30 CFUs of S. aureus.

milk PMNs [4] = assay: Phagocytosis of fluorescent beads by milk PMNs (flow cytometry) after intramammary infusion; type: in vivo, bovine (Holstein dairy cattle)
Procedure: as §1, §2

S. aureus [5] = assay: Therapy of established S. aureus mastitis infections; type: in vivo, S. aureus (in lactating Holstein dairy cattle); conditions: for most efficacious dosing: compared with a single bolus; for dose response of therapeutic efficacy / therapeutic efficacy in infected mammary glands: intramammary infusion
Procedure: The percentage of quarters clearing the infection for greater than 1 milking (RESPONDING), as compared to the percentage of quarters which actually cure their infections (CURE) is a measure of the failure of the host cells to kill the bacteria. The relapse rate is the greatest for r-BoIL-2 (combined relapse rate of 40% for the 10 mg dose X's 3). […] Furthermore, if activation of the host cells is effective, as indicated by the r-BoIL-2 and r-BoGM-CSF, then a combination therapy with r-BoIL-1 or antibiotics is useful.
^1 S. aureus infections are established 2-3 weeks prior to treatment.
Treatments are administered after the AM or PM milking by 1-3 successive
intramammary infusions. A total of 120 mammary glands from 28 different
lactating Holstein dairy cattle are used. Recombinant bovine
interleukin1(IL-1) and interleukin2(IL-2) are obtained from IMMUNEX Corp.
Seattle, WA. Na cephapirin is prepared is PBS; and CefaLak ®
(BristolMeyers) is used according to package# insert instructions.
^2 Cytokines are infused intramammary through the teat canal after th
PM milking at the indicated intervals. The total dose is delivered in a
total volume of 10 ml of sterile PBS. The biological activity of rBoIL-1
and rBoIL-2 is 32,000 Units/μg and 22,000 Units/μg, respectively. A
total dose per infusion 200 mg of Na cephapirin and CefaLak ® is
administered after consecutive PM and AM milkings, according to described
^3 The % RESPONDING = quarters which transiently (> 1 milking) are
free of S. aureus divided by the total number of quarters treated.
^4 The % CURED QUARTERS = # of quarters which clear their infection
and remain free of S. aureus divided by the total number of quarters
treated. Infections are considered to have relapsed if there are > 1 CFUs
from three consecutive AM milkings, or > 20 CFUs for two consecutive afte
therapy at anytime during the 14 day monitoring period.
^5 The % RELAPSE = [1 - {[…]}] ×

[6] = IL-2 multiple, 2 mg, interval 24 hrs
[7] = IL-2 multiple, 10 mg, interval 24 hrs
[8] = IL-1 multiple, 10 μg, interval 24 hrs
[9] = IL-1 multiple, 10 μg, interval 48 hrs
[10] = IL-1 multiple, 200 μg, interval 24 hrs
[11] = IL-1 multiple, 200 μg, interval 48 hrs

B1: recombinant bovine interleukin-2 (protein, UniProt P05016 21-155, looked up)
Interleukin-2: APTSSSTGNTMKEVKSLLLDLQLLLEKVKNPENLKLSRMHTFDFYVPKVNATELKHLKCLLEELKLLEEVLNLAPSKNLNPREIKDSMDNIKRIVLELQGSETRFTCEYDDATVNAVEFLNKWITFCQSIYSTMT
notes: recombinant bovine interleukin-2, obtained from IMMUNEX Corp. Seattle, WA
milk PMNs (quantity) (milk PMNs [1]; 2 mg, FIG. 2D): quantitative increase in milk PMNs
milk PMNs (quantity), decline (milk PMNs [1]; after 72 hours, 2 mg, FIG. 2D): diminishes after 72 hours, to control levels
in vitro specific bioactivities [2]: equivalent
biological activity [2]: 22,000 Units/μg
biological activity ([2]; Table 3 footnote 3): 22,000 Units μg
% CONTROL (S. aureus [3]; 1 mg, 0 hrs): 23%
% INFECTED (S. aureus [3]; 1 mg, 0 hrs): 77%
% CONTROL (S. aureus [3]; 1 mg, -24 hrs): 89%
% INFECTED (S. aureus [3]; 1 mg, -24 hrs): 11%
% CONTROL (S. aureus [3]; 1 mg, -48 hrs): 63%
% INFECTED (S. aureus [3]; 1 mg, -48 hrs): 37%
protection from subsequent S. aureus challenge (S. aureus [3]): capable of protecting the host from subsequent S. aureus challenge
most efficacious time of administration for protective effect (S. aureus [3]): most efficacious if administered 48 hours prior to S. aureus challenge
percent phagocytosis (milk PMNs [4]; by 112 hrs, 2 mg r-BoIL-2, FIG. 2E): still above the pre-treatment level
average number of ingested beads per phagocytic cell (milk PMNs [4]; r-BoIL-2, upon activation): increased upon activation
phagocytosis increase over resident PMNs (milk PMNs [4]; within 40-64 hours, 2 mg r-BoIL-2, FIG. 2E): 2-3 fold
combined relapse rate (S. aureus [5]; 10 mg dose X's 3): 40%
% CURES (S. aureus [5]; [6]): 9%
% RELAPSE (S. aureus [5]; [6]): 84%
% RESPONSE (S. aureus [5]; [6]): 55%
% CURES (S. aureus [5]; [7]): 25%
% RELAPSE (S. aureus [5]; [7]): 57%
% RESPONSE (S. aureus [5]; [7]): 58%
% RESPONSE (S. aureus [5]; IL-2 multiple, 10 mg, interval 48 hrs): 33%
% CURES (S. aureus [5]; IL-2 single, 2 μg): 0%
% RESPONSE (S. aureus [5]; IL-2 single, 2 μg): 0%
% CURES (S. aureus [5]; IL-2 single, 10 μg): 0%
% RELAPSE (S. aureus [5]; IL-2 single, 10 μg): 100%
% RESPONSE (S. aureus [5]; IL-2 single, 10 μg): 20%
% CURES (S. aureus [5]; IL-2 single, 30 μg): 10%
% RELAPSE (S. aureus [5]; IL-2 single, 30 μg): 0%
% RESPONSE (S. aureus [5]; IL-2 single, 30 μg): 10%
most efficacious dosing (S. aureus [5]): most efficacious if doses are administered over 3 consecutive milkings
dose response of therapeutic efficacy (S. aureus [5]): dose response therapeutic efficacy
therapeutic efficacy in infected mammary glands (S. aureus [5]): effectively treated

B2: recombinant bovine interleukin-1 (protein, UniProt P09428 114-266, looked up)
Interleukin-1 beta: APVQSIKCKLQDREQKSLVLASPCVLKALHLLSQEMNREVVFCMSFVQGEERDNKIPVALGIKDKNLYLSCVKKGDTPTLQLEEVDPKVYPKRNMEKRFVFYKTEIKNTVEFESVLYPNWYISTSQIEERPVFLGHFRGGQDITDFRMETLSP
notes: recombinant bovine interleukin-1, obtained from IMMUNEX Corp. Seattle, WA
increase over the pre-treatment number of PMNs (milk PMNs [1]; 16 hours, 200 μg, FIG. 2A): 150 ×
increase over the pre-treatment number of PMNs (milk PMNs [1]; 40 hours, 200 μg, FIG. 2A): 20 ×
number of PMNs (milk PMNs [1]; by 112 hours, 200 μg, FIG. 2A): back to normal levels by 112 hours
in vitro specific bioactivities [2]: equivalent
biological activity [2]: 32,000 Units/μg
% CONTROL (S. aureus [3]; 1 μg, 0 hrs): 87%
% INFECTED (S. aureus [3]; 1 μg, 0 hrs): 13%
% CONTROL (S. aureus [3]; 1 μg, -24 hrs): 100%
% INFECTED (S. aureus [3]; 1 μg, -24 hrs): 0%
% CONTROL (S. aureus [3]; 1 μg, -48 hrs): 78%
% INFECTED (S. aureus [3]; 1 μg, -48 hrs): 22%
protection from subsequent S. aureus challenge (S. aureus [3]): capable of protecting the host from subsequent S. aureus challenge
most efficacious time of administration for protective effect (S. aureus [3]): most efficacious if administered 24 hours prior to S. aureus challenge
phagocytosis (milk PMNs [4]; 200 μg r-BoIL-1, FIG. 2B): unaffected
% CURES (S. aureus [5]; [8]): 8%
% RELAPSE (S. aureus [5]; [8]): 90%
% RESPONSE (S. aureus [5]; [8]): 77%
% CURES (S. aureus [5]; [9]): 0%
% RELAPSE (S. aureus [5]; [9]): 100%
% RESPONSE (S. aureus [5]; [9]): 39%
% CURES (S. aureus [5]; [10]): 7%
% RELAPSE (S. aureus [5]; [10]): 91%
% RESPONSE (S. aureus [5]; [10]): 79%
% CURES (S. aureus [5]; [11]): 29%
% RELAPSE (S. aureus [5]; [11]): 54%
% RESPONSE (S. aureus [5]; [11]): 64%
% CURES (S. aureus [5]; IL-1 single, 10 μg): 11%
% RELAPSE (S. aureus [5]; IL-1 single, 10 μg): 0%
% RESPONSE (S. aureus [5]; IL-1 single, 10 μg): 11%
% CURES (S. aureus [5]; IL-1 single, 200 μg): 0%
% RELAPSE (S. aureus [5]; IL-1 single, 200 μg): 100%
% RESPONSE (S. aureus [5]; IL-1 single, 200 μg): 20%
% CURES (S. aureus [5]; IL-1 single, 600 μg): 0%
% RELAPSE (S. aureus [5]; IL-1 single, 600 μg): 100%
% RESPONSE (S. aureus [5]; IL-1 single, 600 μg): 10%
relapse rate (S. aureus [5]; as quoted in text of Example 5): 54%
most efficacious dosing (S. aureus [5]): most efficacious if doses are administered over 3 consecutive milkings
dose response of therapeutic efficacy (S. aureus [5]): dose response therapeutic efficacy
therapeutic efficacy in infected mammary glands (S. aureus [5]): effectively treated
